Test results as given in PMC9584538 (Cell reports, 2022).
Values joined by “and” are separate entries in the source; they are usually repeats but may differ in a detail not shown here. Equal entries are not always repeated.

T1: PARL-protease-activated Skd3 (human CLPB), wild type (human, UniProt Q9H078 127-707)
T1 sequence (looked up): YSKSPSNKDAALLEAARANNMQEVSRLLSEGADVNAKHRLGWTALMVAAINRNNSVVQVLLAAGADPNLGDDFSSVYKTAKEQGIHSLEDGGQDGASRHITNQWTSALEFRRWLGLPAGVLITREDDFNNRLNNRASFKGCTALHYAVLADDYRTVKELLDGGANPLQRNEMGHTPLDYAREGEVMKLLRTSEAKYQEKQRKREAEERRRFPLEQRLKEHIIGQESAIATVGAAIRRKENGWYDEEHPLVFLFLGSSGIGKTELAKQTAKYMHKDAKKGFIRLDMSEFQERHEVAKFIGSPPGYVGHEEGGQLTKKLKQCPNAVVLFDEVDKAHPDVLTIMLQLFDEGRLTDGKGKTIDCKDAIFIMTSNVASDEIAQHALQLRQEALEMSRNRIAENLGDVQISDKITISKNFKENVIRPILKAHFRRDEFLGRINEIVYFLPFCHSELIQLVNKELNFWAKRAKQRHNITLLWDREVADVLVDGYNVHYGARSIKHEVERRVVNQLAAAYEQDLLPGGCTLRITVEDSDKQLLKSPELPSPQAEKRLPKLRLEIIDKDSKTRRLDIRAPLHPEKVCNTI

B1: _(PARL)Skd3^A591V (MGCA7-linked variant) (enzyme, human, UniProt Q9H078 127-707, looked up)
chain: YSKSPSNKDAALLEAARANNMQEVSRLLSEGADVNAKHRLGWTALMVAAINRNNSVVQVLLAAGADPNLGDDFSSVYKTAKEQGIHSLEDGGQDGASRHITNQWTSALEFRRWLGLPAGVLITREDDFNNRLNNRASFKGCTALHYAVLADDYRTVKELLDGGANPLQRNEMGHTPLDYAREGEVMKLLRTSEAKYQEKQRKREAEERRRFPLEQRLKEHIIGQESAIATVGAAIRRKENGWYDEEHPLVFLFLGSSGIGKTELAKQTAKYMHKDAKKGFIRLDMSEFQERHEVAKFIGSPPGYVGHEEGGQLTKKLKQCPNAVVLFDEVDKAHPDVLTIMLQLFDEGRLTDGKGKTIDCKDAIFIMTSNVASDEIAQHALQLRQEALEMSRNRIAENLGDVQISDKITISKNFKENVIRPILKAHFRRDEFLGRINEIVYFLPFCHSELIQLVNKELNFWAKRVKQRHNITLLWDREVADVLVDGYNVHYGARSIKHEVERRVVNQLAAAYEQDLLPGGCTLRITVEDSDKQLLKSPELPSPQAEKRLPKLRLEIIDKDSKTRRLDIRAPLHPEKVCNTI
B2: _(PARL)Skd3^R408G (MGCA7-linked variant) (enzyme, human, UniProt Q9H078 127-707, looked up)
chain: YSKSPSNKDAALLEAARANNMQEVSRLLSEGADVNAKHRLGWTALMVAAINRNNSVVQVLLAAGADPNLGDDFSSVYKTAKEQGIHSLEDGGQDGASRHITNQWTSALEFRRWLGLPAGVLITREDDFNNRLNNRASFKGCTALHYAVLADDYRTVKELLDGGANPLQRNEMGHTPLDYAREGEVMKLLRTSEAKYQEKQRKREAEERRRFPLEQRLKEHIIGQESAIATVGAAIRRKENGWYDEEHPLVFLFLGSSGIGKTELAKQTAKYMHKDAKKGFIGLDMSEFQERHEVAKFIGSPPGYVGHEEGGQLTKKLKQCPNAVVLFDEVDKAHPDVLTIMLQLFDEGRLTDGKGKTIDCKDAIFIMTSNVASDEIAQHALQLRQEALEMSRNRIAENLGDVQISDKITISKNFKENVIRPILKAHFRRDEFLGRINEIVYFLPFCHSELIQLVNKELNFWAKRAKQRHNITLLWDREVADVLVDGYNVHYGARSIKHEVERRVVNQLAAAYEQDLLPGGCTLRITVEDSDKQLLKSPELPSPQAEKRLPKLRLEIIDKDSKTRRLDIRAPLHPEKVCNTI
B3: _(PARL)Skd3^K387A (Walker A) (enzyme, human, UniProt Q9H078 127-707, looked up)
chain: YSKSPSNKDAALLEAARANNMQEVSRLLSEGADVNAKHRLGWTALMVAAINRNNSVVQVLLAAGADPNLGDDFSSVYKTAKEQGIHSLEDGGQDGASRHITNQWTSALEFRRWLGLPAGVLITREDDFNNRLNNRASFKGCTALHYAVLADDYRTVKELLDGGANPLQRNEMGHTPLDYAREGEVMKLLRTSEAKYQEKQRKREAEERRRFPLEQRLKEHIIGQESAIATVGAAIRRKENGWYDEEHPLVFLFLGSSGIGATELAKQTAKYMHKDAKKGFIRLDMSEFQERHEVAKFIGSPPGYVGHEEGGQLTKKLKQCPNAVVLFDEVDKAHPDVLTIMLQLFDEGRLTDGKGKTIDCKDAIFIMTSNVASDEIAQHALQLRQEALEMSRNRIAENLGDVQISDKITISKNFKENVIRPILKAHFRRDEFLGRINEIVYFLPFCHSELIQLVNKELNFWAKRAKQRHNITLLWDREVADVLVDGYNVHYGARSIKHEVERRVVNQLAAAYEQDLLPGGCTLRITVEDSDKQLLKSPELPSPQAEKRLPKLRLEIIDKDSKTRRLDIRAPLHPEKVCNTI
B4: _(PARL)Skd3^N496K (SCN-linked variant, sensor-1) (enzyme, human, UniProt Q9H078 127-707, looked up)
chain: YSKSPSNKDAALLEAARANNMQEVSRLLSEGADVNAKHRLGWTALMVAAINRNNSVVQVLLAAGADPNLGDDFSSVYKTAKEQGIHSLEDGGQDGASRHITNQWTSALEFRRWLGLPAGVLITREDDFNNRLNNRASFKGCTALHYAVLADDYRTVKELLDGGANPLQRNEMGHTPLDYAREGEVMKLLRTSEAKYQEKQRKREAEERRRFPLEQRLKEHIIGQESAIATVGAAIRRKENGWYDEEHPLVFLFLGSSGIGKTELAKQTAKYMHKDAKKGFIRLDMSEFQERHEVAKFIGSPPGYVGHEEGGQLTKKLKQCPNAVVLFDEVDKAHPDVLTIMLQLFDEGRLTDGKGKTIDCKDAIFIMTSKVASDEIAQHALQLRQEALEMSRNRIAENLGDVQISDKITISKNFKENVIRPILKAHFRRDEFLGRINEIVYFLPFCHSELIQLVNKELNFWAKRAKQRHNITLLWDREVADVLVDGYNVHYGARSIKHEVERRVVNQLAAAYEQDLLPGGCTLRITVEDSDKQLLKSPELPSPQAEKRLPKLRLEIIDKDSKTRRLDIRAPLHPEKVCNTI

What was measured:
[1] = target: T1, PARL-protease-activated Skd3 (human …); assay: FRET or BRET
[2] = target: the molecule itself; assay: SEC

Binder | binding result [1] | stoichiometry N [2]
B1 | binds | 6 and 12
B2 | binds | 12
B3 | binds | 
B4 | binds | 6
